Assay: yeast display, Sf9 membrane polyspecificity reagent, FACS + sequencing; frameworks hold sequencing errors
How it was run: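 Using colony PCR, genes from sorted yeast display clones were amplified, then sequenced on MiSeq at 2 × 250 and filtered by CDR length. The clones had been stained with 10% biotinylated, detergent-solubilized Sf9 membrane reagent for 1 hour at 4 °C and sorted by FACS into low and high (top ~1%) gates on anti-HA and streptavidin fluorescence. Polyreactivity labels come from the gate of origin.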

Sequence | polyreactivity (PSR sort gate)
QVQLVESGGGLVQAGGSLRLSCAASGITFGRNTMGWYRQAPGKERELVASISYSGTTTYYADSVKGRFTISRDNAKNTVYLQMNSLKPEDTAVYYCNKRWRYYDMDYWGQGTQVTVSS | low polyreactivity
QVQLVESGGGLVQAGGSLRLSCAASGITFGRNTMGWYRQAPGKESELVAAIDSGGNTYADSVKGRFTISRDNAKNTVYLQMNSLKPEDTAVYYCAADNSVGEYQRVDYDYWGQGTQVTVSS | low polyreactivity
QVQLVESGGGLVQAGGSLRLSCAASGITFGSYAMGGYRQAPGKERELVAAITRRGDNTYYADSVKGRFTISRDNAKNTVYLQMNSLKPEDTAVYYCNAAKGGRYPDYDYWGQGTQVTVSS | high polyreactivity
QVQLVESGGGLVQAGGSLRLSCAASGITFGSYAMGWYRQAPGKERELVAAISRSGGSTYYADSVKGRFTISRDNAKNTVYLQMNSLKPEDTAVYYCAVRYVYYREGDYWGQGTQVSVSS | high polyreactivity
QVQLVESGGGLVQAGGSLRLSCAASGITFGSYAMGWYRQAPGKERELVAAISRSGGSTYYADSVKGRFTISRDNEKNTVYLQMNSLKPEDTAVYYCAVRYVYYREGDYWGQGTQVTVSS | high polyreactivity
QVQLVESGGGLVQAGGSLRLSCAASGITFGSYAMGWYRQAPGKERELVAAITWRGGSTFYADSVKGRFTISRDNAKNTVYLQMNSLKPDDTAVYYCAATLTKYLPRYYWGQGTQVTVSS | low polyreactivity
QVQLVESGGGLVQAGGSLRLSCAASGITFGWNAMGWYRQAPGKEWELVAAITEDGYSTYYADSVKGRFTISRDNEKNTVYLQMNSLKPEDTAVYYCAAEYYDVYTYVQYDSWGQGTQVTVSS | high polyreactivity
QVQLVESGGGLVQAGGSLRLSCAASGITFGWYAMGWYRQAPGKERELVAAISTGSSTYYADSVKGRFTISRDNAKNTVYLQMNSLKPEDTAVYYCAAYYGISFDYWGQGSQVTVSS | high polyreactivity
QVQLVESGGGLVQAGGSLRLSCAASGITFGYNAMGWYIQAPGKERELVASISYSGDSTYYADSVKGRFTISRDNAKNTVYLLMNSLKPEDTAVYYCNVRNRPGGEINDYDYWGQGTQVTVSS | low polyreactivity
QVQLVESGGGLVQAGGSLRLSCAASGITFGYYAMGWYRQAPGKERELVAAISRTGSTTYYADSVKGRFTISRDNAKNTVYLQMNRLKPEDTAVYYCAARRWGTNGGGSPMYYWGQGTQVTVSS | high polyreactivity
QVQLVESGGGLVQAGGSLRLSCAASGITFGYYAMGWYRQAPGKERENVAAITRRGGSTYYADSVKGRFTISRDNAKNTVYLQMNSLKPEDTAVYYCAADSYRYWFIEDNYWGQGTQVTVSS | high polyreactivity
QVQLVESGGGLVQAGGSLRLSCAASGITFHPYAKGWYRQAPGNEREFVAVISFRGGRTYYADSVKGRFTISRDNAKNNVYLQMNSLKPEDTAVYYCAAQYVSRRYSRYNYWGQGTQVTVSS | high polyreactivity
QVQLVESGGGLVQAGGSLRLSCAASGITFIGYAMGWYRQAPGKERELVASITSGANTNYADSVKGRFTISRDNAKNTVYLQMNSLKPEDTAVYYCAAPEHGTYANILGEPLDYWGQGTQVTVSS | low polyreactivity
QVQLVESGGGLVQAGGSLRLSCAASGITFITYTMGWYRQEPGKERELVAGISSGGSTYYADSVKGRFTISRDNAKNTVYLQMNSLKPEDTAVYYCAAEFAGWGYYWFDYWGQGTQVTVSS | high polyreactivity
QVQLVESGGGLVQAGGSLRLSCAASGITFITYVMGWYRQAPGKERELVAAISLRGGRTSYADSVKGRFTISRDNAKNTVYLQMNSLKPEDTAVYYCAARAYYTRYDYWGQGTQVTVSS | high polyreactivity
QVQLVESGGGLVQAGGSLRLSCAASGITFIYNAMGWYRQAPGKERELVATINDGGSTNYADSVKGRFTISRDNAKNTVYLQMNSLKPEDTAVYYCNADGGPYGAVGKSDYWGQGTQVTVSS | low polyreactivity
QVQLVESGGGLVQAGGSLRLSCAASGITFIYYDMGWYRQAPGKEREFVAAINYRGTSTYYADSVKGRFTISRDNAKNTVYLQMNSLKPEDTAVYYCAARLRQTGGDRLGYWGQGTQVTVSS | high polyreactivity
QVQLVESGGGLVQAGGSLRLSCAASGITFKFNAMGWYRQAPGKERELVAAISVRGGRTYYADSVKGRFTISRDNAKNTVYLQMNSLKPEDTAVYYCAATDWFYSYYLGYGYGYWGQGTQVTVSS | high polyreactivity
QVQLVESGGGLVQAGGSLRLSCAASGITFKPNAMGWYRQAPGKERELVAALDTGGSTNYADSVKGRFTISRDNEKNTVYLQMNSLKPEDTEVYYCAAPYQDRDLHVSYSTYEGGYWGQGTQVTVSS | low polyreactivity
QVQLVESGGGLVQAGGSLRLSCAASGITFKYNAMGWYRQAPGKERELVAAISSGGNTYYADSVKGRFTISRDNAKNTVYLQMNSLKPEDTAVYYCAAPSYDTLWHDYWGQGTQVTVSS | low polyreactivity
QVQLVESGGGLVQAGGSLRLSCAASGITFKYYAMGWYRQAPGKERELVAAISRGGGSTYYADSVKGRFTISRDNAKNTVYLQMNSLKPEDTAVYYCNAVFYSFIQSDYWGQGTQVTVSS | high polyreactivity
QVQLVESGGGLVQAGGSLRLSCAASGITFKYYAMGWYRQAPGKESELVAAISRSGSSTYYADSVKGRFTISRDNAKNTVYLQINSLTPEDTAVYYCAADWKSKRTDKYDSWGQGTQVTVSS | high polyreactivity
QVQLVESGGGLVQAGGSLRLSCAASGITFKYYTMGWYRQAPGKERELVAAISRSGGSTYYADSVKGRFTISRDNAKNTVYLLMNSLKPEDTAVYYCAGERGAYRGVTFTYGYWGQGTQVTVSS | high polyreactivity
QVQLVESGGGLVQAGGSLRLSCAASGITFKYYVMGWYRQAPGKERELVARITRRSGSTYYADSVKGRFTISRDNAKNTVYLQMNSLKPEDTAVYYCAASPHSRSDYGYWGQGTQVTVSS | high polyreactivity
QVQLVESGGGLVQAGGSLRLSCAASGITFLNYAMGWSRQEPGKERELVAAITSGGSTYYADSVKGRFTITRDNAKNTVYLQMNSLKPEDTAVYYCAADGDSLPYSFWWQIRLDYWGQGTVVTVSS | low polyreactivity
QVQLVESGGGLVQAGGSLRLSCAASGITFLRYAMGWYRQAPGKERELVATIRTGGTTNYADSVKGRFTISRDNAKNTVYLLMISLKPEDTAVYYCAVDWSRQAHKFNYWGQGTQVTVSS | high polyreactivity
QVQLVESGGGLVQAGGSLRLSCAASGITFLVYVMGWYIQAPGKERELVAAISSGGSTYYADSVKGRFTISRDKAKNTVYLQMNSLKPEDTAVYYCAAERKLYGLYDYWGQGTQVTVSS | low polyreactivity
QVQLVESGGGLVQAGGSLRLSCAASGITFLWNVMGWYRQAPGKERELVATITSIGGITNYADSVKGRFTISRDNAKNTVYLQMNSLKPEDTAVYYCARDDRDIRGESGREGFLYDYWGQGTQVTVSS | low polyreactivity
QVQLVESGGGLVQAGGSLRLSCAASGITFNPNAMGWYRQAPGKERELVAVITYRGGSTYYADSVKGRFTISRDNAKNTVYLQMNSLKPEDTAVYYCAAQYIGWHLYWYDYWGQGTQVTVSS | low polyreactivity
QVQLVESGGGLVQAGGSLRLSCAASGITFNRYSMGWYRQAPGKERELVARISLRGGNTYYADSVKGRFTISRDNAKNTVYLQMNSLKPEDPAVYYCNADLYRQYASRYHYWGQGTQVTVSS | high polyreactivity

Source: the nanobody polyreactivity screen of Harvey et al. (2022)
